The test system of series [1] is α smooth muscle actin and vinculin in elastin −/− vascular smooth muscle cells. The experiment in a line: Western blot of protein levels. In kind it is cell-based, mouse. The settings on record: three hours; 1 μg/ml tropoelastin, 10 μM elastin peptide. The protocol: We performed two experiments to address this model. […] Cells were washed with ice-cold DPBS and lysed in an additional 1 ml of Laemmli sample buffer. Following lysis, cells were collected, boiled, pelleted, and resolved by SDS-PAGE. The resolved samples were transferred to a membrane, blocked with 5% milk/PBST, incubated with either an anti-α smooth muscle actin antibody or an anti-vinculin antibody, and visualized using chemiluminescence.

Another series relates to COS cells. As to the kind of experiment: Modified Boyden chamber chemotaxis assay. In kind it is cell-based. The source says:
(§1) In Eln −/− arteries, vascular smooth muscle cells accumulated in the subendothelial space and occluded the artery. […] Because the elastic lamellae are highly fenestrated allowing cells to migrate through, it is unlikely that elastin simply forms a physical cage that contains vsmcs. Instead, we postulated that elastin signals vsmcs to migrate and adhere to the elastic lamellae. To test this hypothesis we used a modified Boyden chamber assay (Li et al., 1998; Raines et al., 1993). This assay system consists of two adjacent chambers separated by a semipermeable membrane. The amount of cells placed in one chamber (upper) that migrate to the other chamber (lower) is measured by counting the number of cells that have passed through to the undersurface of the filter.

A further series concerns CHO cells. As to the kind of experiment: Modified Boyden chamber chemotaxis assay. It is filed as cell-based.
From the text: as §1

The test system of another series is RhoA. The experiment in a line: RhoA activation, Rhotekin bead pull-down and Western blot. In kind it is cell-based, mouse. Particulars: lysates of treated −/− cells. From the text: Briefly, cell lysates from treated or untreated −/− cells were immunoprecipitated using Rhotekin-coated beads which recognize GTP-bound RhoA. […] Rho-γGTP served as a positive control and Rho-GDP served as a negative control.

Series [2] concerns Eln +/+ and Eln −/− vsmcs. Particulars: trypan blue, end of the experiment (72 hours).
In series [3] the test system is GiRK channel (GiRK 1 and GiRK 4) in A2058 cells. The experiment in a line: GiRK channel activity in transfected A2058 cells. In kind it is cell-based. Particulars: A2058 cells transiently transfected with GiRK 1 and GiRK 4. The source says: Briefly, A2058 cells which are known to be responsive to elastin signaling were used in these studies. A2058 cells were transiently transfected with GiRK 1 and GIRK 4 inorder to form functional heteromultimeric GiRK channels. Transfected cells were contacted with either tropoelastin, a peptide containing 7 repeats of the tropoelastin fragment VGVAPG, or a control peptide.

Series [4] deals with Eln +/+ and Eln −/− vsmcs. Particulars: added to the media; 24, 48, and 72 hours.
The subject of series [5] is −/− vascular smooth muscle cells. As to the kind of experiment: F:G actin ratio, sedimentation assay. It is filed as cell-based, mouse. The settings on record: versus untreated cells.
For series [6], the system named is Eln −/− vascular smooth muscle cells. The settings on record: 3 hours, 1 ug/ml tropoelastin, 10 nM elastin peptide or 10 nM control peptide.
The test system is the same in series [7]. As to the kind of experiment: Focal adhesion organization, vinculin immunofluorescence. It is filed as cell-based, mouse. Particulars: 3 hours, 1 ug/ml tropoelastin, 10 nM elastin peptide or 10 nM control peptide.
For series [8], the system named is vascular smooth muscle cells. In kind it is cell-based, mouse. The protocol:
Instead, we postulated that elastin signals vsmcs to migrate and adhere to the elastic lamellae. To test this hypothesis we used a modified Boyden chamber assay (Li et al., 1998; Raines et al., 1993). This assay system consists of two adjacent chambers separated by a semipermeable membrane. The amount of cells placed in one chamber (upper) that migrate to the other chamber (lower) is measured by counting the number of cells that have passed through to the undersurface of the filter.
Briefly, chemotaxis was measured using a modified Boyden chamber method. […] Prior to their addition to the upper chamber, vascular smooth muscle cells were incubated with either 20 μM EDTA (inhibitor of integrin receptors), 10 μM genistein (inhibitor of receptor tyrosine kinases), 100 ng/ml pertussis toxin, 100 ng/ml β-protomer, 20 μM Y27632, or the cells were left untreated. […] Cells were added to the upper chamber and incubated for three hours.

For series [9], the system named is Eln +/+ vascular smooth muscle cells. The settings on record: recombinant tropoelastin treatment.
The subject of series [10] is cAMP levels in Eln −/− vsmcs. It is filed as cell-based, mouse.
In series [11] the test system is Eln +/+ vascular smooth muscle cells. The experiment in a line: Actin stress fiber organization, immunofluorescence scoring. Particulars: elastin treatment. In kind it is cell-based, mouse.
Setting [12] is: listed as recombinant tropoelastin.

Read-outs that look alike come from different tables or passages of the source.

B1: tropoelastin: protein encoded by the elastin gene; human amino acid sequence SEQ ID NO: 2; used as recombinant tropoelastin (protein, listed as Homo sapiens)
chain: MAGLTAAAPRPGVLLLLLSILHPSRPGGVPGAIPGGVPGGVFYPGAGLGALGGGALGPGGKPLKPVPGGLAGAGLGAGLGAFPAVTFPGALVPGGVADAAAAYKAAKAGAGLGGVPGVGGLGVSAGAVVPQPGAGVKPGKVPGVGLPGVYPGGVLPGARFPGVGVLPGVPTGAGVKPKAPGVGGAFAGIPGVGPFGGPQPGVPLGYPIKAPKLPGGYGLPYTTGKLPYGYGPGGVAGAAGKAGYPTGTGVGPQAAAAAAAKAAAKFGAGAAGVLPGVGGAGVPGVPGAIPGIGGIAGVGTPAAAAAAAAAAKAAKYGAAAGLVPGGPGFGPGVVGVPGAGVPGVGVPGAGIPVVPGAGIPGAAVPGVVSPEAAAKAAAKAAKYGARPGVGVGGIPTYGVGAGGFPGFGVGVGGIPGVAGVPSVGGVPGVGGVPGVGISPEAQAAAAAKAAKYGVGTPAAAAAKAAAKAAQFGLVPGVGVAPGVGVAPGVGVAPGVGLAPGVGVAPGVGVAPGVGVAPGIGPGGVAAAAKSAAKVAAKAQLRAAAGLGAGIPGLGVGVGVPGLGVGAGVPGLGVGAGVPGFGAGADEGVRRSLSPELREGDPSSSQHLPSTPSSPRVPGALAAAKAAKYGAAVPGVLGGLGALGGVGIPGGVVGAGPAAAAAAAKAAAKAAQFGLVGAAGLGGLGVGGLGVPGVGGLGGIPPAAAAKAAKYGAAGLGGVLGGAGQFPLGGVAARPGFGLSPIFPGGACLGKACGRKRK
By cell viability is commonly meant a per cent measure of how many cells are alive, often set against a control. Low readings indicate a greater loss of cells, high ones better survival. For B1, the “protein levels of α smooth muscle actin or vinculin” value in series [1] is reported as “does not alter”. The “migration of COS cells exposed to elastin” value with COS cells was “No migration”. Also, the “migration of CHO cells exposed to elastin” value with CHO cells is listed as “No migration”. Besides, the “GTP-bound (activated) RhoA” value in the series on RhoA was “significant increase”. This molecule also displayed a cell viability in [2] greater than 98%. Besides, the GiRK channel activity entry in series [3] is “activation”. Besides, in series [4], the “proliferation of Eln −/− and Eln +/+ vsmcs” value is recorded as “reduced to similar levels”. In addition, in [5], the “increase in the F:G actin ratio” value came to 3 fold. The results for the “formation of organized actin stress fibers / actin myofilament polymerization” value in [6] and in [6] (setting [12]) were “induced actin myofilament polymerization” and “induces the formation of organized actin stress fibers”, respectively. Besides, the results for the “organization of focal adhesions (vinculin)” value in [7] and in series [7] (setting [12]) were “induced organization of focal adhesions” and “induces well-defined focal adhesions”, respectively. The “migration of murine vsmcs to recombinant tropoelastin” value in [8] is “migrated aggressively”. Besides, the “migration without concentration gradient (checkerboard analysis)” value in [8] (200 ng to 200 ng gradient) was “minimal migration”. Also, the “amount of migration induced, relative to platelet derived growth factor” value in series [8] (data not shown) was “equivalent to the standard dose of 30 ng/ml of platelet derived growth factor”. Also, in [8] (exogenous tropoelastin), the “migration of Eln +/+ vsmcs relative to Eln −/− vsmcs” value was “did not migrate towards exogenous tropoelastin as readily as Eln −/− vsmcs”. Further, in series [9], the “vinculin organization in Eln +/+ vsmcs” value is reported as “does not affect vinculin organization”. For the same molecule, the “cAMP levels in the presence of cholera toxin” value in series [10] is reported as “significantly reduced”. The “forskolin induced cAMP levels” value in series [10] (10 μM forskolin pretreatment, 1 ug/ml tropoelastin, 10 μM elastin peptide or control peptide) is “decrease”. Also, in series [10] (elastin treatment alone), the “increase in cAMP” value came out at 3 fold. Also, the “level of cAMP in the presence of pertussis toxin” value in series [10] (pertussis toxin and elastin) is recorded as “raises the level of cAMP”. For the same molecule, the “actin stress fiber organization in Eln +/+ cells” value in series [11] (listed as elastin) is “no affect”; in series [11] (setting [12]) it was “does not affect”.

(Values after patent US20060079439A1, “Elastin prevents occlusion of body vessels by vascular smooth muscle cells” (priority 2002, published 2006).)
